Tests used:
[1] = molecular target: hUSP7 residues 561-1102 (human) (UniProt Q93009); experiment: ITC; 20 µM USP7(561-1102) in the cell titrated with 1.2 mM PAF15 at 293 K; 10 mM HEPES pH 7.5, 150 mM NaCl, 0.25 mM TCEP; one-site model
DNMT1 (Homo sapiens) = DNMT1 (Homo sapiens) (UniProt P26358); details: cited from earlier work
UniProt P26358, sequence (P26358 whole entry): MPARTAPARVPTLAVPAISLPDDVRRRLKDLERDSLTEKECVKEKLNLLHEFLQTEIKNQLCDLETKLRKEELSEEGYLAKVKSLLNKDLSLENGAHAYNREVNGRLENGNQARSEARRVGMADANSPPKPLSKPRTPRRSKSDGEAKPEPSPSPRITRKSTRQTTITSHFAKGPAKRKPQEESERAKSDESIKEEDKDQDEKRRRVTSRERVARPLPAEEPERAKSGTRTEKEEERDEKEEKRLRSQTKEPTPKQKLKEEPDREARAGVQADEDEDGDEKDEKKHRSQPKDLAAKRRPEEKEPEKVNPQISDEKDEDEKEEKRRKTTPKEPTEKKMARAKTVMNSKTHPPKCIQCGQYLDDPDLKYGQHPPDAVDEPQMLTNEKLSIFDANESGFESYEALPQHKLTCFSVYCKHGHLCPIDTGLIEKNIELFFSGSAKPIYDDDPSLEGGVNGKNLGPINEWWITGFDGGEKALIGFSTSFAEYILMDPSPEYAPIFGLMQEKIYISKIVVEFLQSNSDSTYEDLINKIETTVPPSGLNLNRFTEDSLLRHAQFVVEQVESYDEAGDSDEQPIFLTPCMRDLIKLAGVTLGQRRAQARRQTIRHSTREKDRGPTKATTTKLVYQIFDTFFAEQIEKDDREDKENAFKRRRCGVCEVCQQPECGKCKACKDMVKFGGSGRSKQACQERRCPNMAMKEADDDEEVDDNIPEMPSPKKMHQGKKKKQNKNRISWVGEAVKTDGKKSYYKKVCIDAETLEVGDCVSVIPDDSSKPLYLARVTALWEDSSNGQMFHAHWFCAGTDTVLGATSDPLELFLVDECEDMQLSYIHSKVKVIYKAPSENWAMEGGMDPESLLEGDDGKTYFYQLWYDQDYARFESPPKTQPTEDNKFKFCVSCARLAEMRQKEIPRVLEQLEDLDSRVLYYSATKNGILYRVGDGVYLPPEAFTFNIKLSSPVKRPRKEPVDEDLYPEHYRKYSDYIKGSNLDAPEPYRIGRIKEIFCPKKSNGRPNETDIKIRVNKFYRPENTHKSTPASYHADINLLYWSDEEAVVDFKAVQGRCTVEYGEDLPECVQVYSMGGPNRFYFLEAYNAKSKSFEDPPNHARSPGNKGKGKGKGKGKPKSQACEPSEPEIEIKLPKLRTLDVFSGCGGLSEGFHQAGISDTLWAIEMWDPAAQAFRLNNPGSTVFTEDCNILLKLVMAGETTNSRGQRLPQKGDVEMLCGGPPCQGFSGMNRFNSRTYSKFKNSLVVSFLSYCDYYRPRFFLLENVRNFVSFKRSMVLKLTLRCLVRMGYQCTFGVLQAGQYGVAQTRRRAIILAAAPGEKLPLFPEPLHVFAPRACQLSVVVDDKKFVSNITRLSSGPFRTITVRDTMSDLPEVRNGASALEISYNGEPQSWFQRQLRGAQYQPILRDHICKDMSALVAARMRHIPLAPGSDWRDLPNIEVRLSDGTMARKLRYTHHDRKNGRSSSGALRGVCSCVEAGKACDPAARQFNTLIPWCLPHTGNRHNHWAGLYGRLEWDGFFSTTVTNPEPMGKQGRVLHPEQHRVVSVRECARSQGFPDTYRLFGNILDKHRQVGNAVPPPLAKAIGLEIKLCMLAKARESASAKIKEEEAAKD

| Substance | Kd [1] [µM] | Kd (DNMT1 (Homo sapiens)) [µM] |
| --- | --- | --- |
| full-length hPAF15 wild-type, C-terminal FLAG tag (from UniProt Q15004 1-111) (natural protein) | 32.7 | – |
| USP7 561-1102 (from UniProt Q93009) | – | 0.6 |

Reference: publication PMC9943068
